The values below come from publication doi:10.1101/2024.04.11.589026 (bioRxiv, 2024).

B2: ScaC passenger domain (residues 33-223), purified (domain or fragment)
chain: VSNMNLDISNMGEAREGLRKDIAEVSKLLCMLEKSTASSKNLTMRLQQSDTRENEQSNHIRLLITEIESINKENDCLRQKNNQLKIKLHQLKVKLEQALARNTDLQQILPKSQAEMDNLRKQNEQLKIQLQQLQVKLQDLMSLQNKCSNLALINSVKLNYIRDIKYIALANIVIVKALASTFTEKLSKSNR

Data set [1] deals with BICD2-AF488 (AF488-labelled BICD2-SNAP) (mouse, UniProt Q921C5 1-820, Alexa Fluor 488 on the SNAP tag). Description: single-molecule TIRF co-migration on microtubules.
The data set “SEC-MALS” deals with the molecule itself. Briefly: SEC-MALS. In general terms: Size exclusion chromatography separates by hydrodynamic size, large species first.
Data set [2] concerns the target T1, full-length mouse BICD2 (mouse, UniProt Q921C5 1-820). Briefly: SEC-MALS.
Data set [3] addresses T1, full-length mouse BICD2. Description: SEC.
The target of data set [4] is T2, full-length mouse BICD2 (mouse), Q921C5.
T2 chain: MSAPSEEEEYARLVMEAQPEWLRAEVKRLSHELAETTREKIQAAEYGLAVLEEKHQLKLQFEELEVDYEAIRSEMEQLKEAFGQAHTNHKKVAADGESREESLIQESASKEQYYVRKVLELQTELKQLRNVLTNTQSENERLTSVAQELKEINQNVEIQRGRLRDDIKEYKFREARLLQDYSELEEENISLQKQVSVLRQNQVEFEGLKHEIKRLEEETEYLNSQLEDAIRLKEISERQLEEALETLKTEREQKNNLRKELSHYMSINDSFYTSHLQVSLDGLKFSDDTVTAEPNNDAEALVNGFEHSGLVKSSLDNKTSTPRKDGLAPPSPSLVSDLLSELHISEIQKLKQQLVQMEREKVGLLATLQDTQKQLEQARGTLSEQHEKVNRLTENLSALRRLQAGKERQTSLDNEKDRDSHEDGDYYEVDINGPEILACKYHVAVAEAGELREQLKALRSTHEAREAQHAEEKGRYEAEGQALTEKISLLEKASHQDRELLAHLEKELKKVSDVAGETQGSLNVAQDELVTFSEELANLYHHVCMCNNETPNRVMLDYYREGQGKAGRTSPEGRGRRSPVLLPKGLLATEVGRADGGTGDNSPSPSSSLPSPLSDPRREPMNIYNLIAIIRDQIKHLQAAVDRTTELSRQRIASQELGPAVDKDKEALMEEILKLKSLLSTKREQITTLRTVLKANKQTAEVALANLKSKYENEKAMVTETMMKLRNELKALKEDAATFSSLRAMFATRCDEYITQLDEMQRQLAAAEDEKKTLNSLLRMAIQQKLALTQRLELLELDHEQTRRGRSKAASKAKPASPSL
Briefly: SEC-MALS. The following applies: remark: other sources report otherwise.

Data set [5] deals with B2. Description: SEC.
Data set [6] has as its target Rab6^Q72L (GTP-locked Rab6 mutant) (human, UniProt P20340 1-208, Q72L). Briefly: pull-down.
Data set [7] concerns the target B2. Briefly: pull-down.
Data set [8] deals with BICD2C (BICD2 residues 342-800) (mouse, UniProt Q921C5 342-800). Description: SEC.

Sequence of Rab6^Q72L (GTP-locked Rab6 mutant) (P20340 whole entry Q72L): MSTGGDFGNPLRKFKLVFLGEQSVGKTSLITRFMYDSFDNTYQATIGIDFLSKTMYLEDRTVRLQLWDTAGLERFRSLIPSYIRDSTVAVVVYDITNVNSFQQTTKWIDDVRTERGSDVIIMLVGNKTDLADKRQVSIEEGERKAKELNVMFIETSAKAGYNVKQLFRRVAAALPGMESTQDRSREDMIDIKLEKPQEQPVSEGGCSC

B1: ScaC-AF647 (AF647-labelled ScaC-SNAP) (domain or fragment)
chain: VSNMNLDISNMGEAREGLRKDIAEVSKLLCMLEKSTASSKNLTMRLQQSDTRENEQSNHIRLLITEIESINKENDCLRQKNNQLKIKLHQLKVKLEQALARNTDLQQILPKSQAEMDNLRKQNEQLKIQLQQLQVKLQDLMSLQNKCSNLALINSVKLNYIRDIKYIALANIVIVKALASTFTEKLSKSNR
modifications: Alexa Fluor 647 on the SNAP tag
As for B1, the binding result in data set [1] was “binds”.
As a reminder, the stoichiometry N is a count of units in the complex or per binding partner. As to B2, the “stoichiometry N” value in “SEC-MALS” was 2; in the data set with full-length mouse BICD2 [2], 1 ScaC chains per BICD2 chain (2:2).

B3: ScaC[50-159] (domain or fragment)
chain: LRKDIAEVSKLLCMLEKSTASSKNLTMRLQQSDTRENEQSNHIRLLITEIESINKENDCLRQKNNQLKIKLHQLKVKLEQALARNTDLQQILPKSQAEMDNLRKQNEQLK
Consider B3, for which the binding result in the data set with full-length mouse BICD2 [3] is given as “binds”.

B4: full-length mouse BICD2, Q921C5 1-820 (natural protein)
chain: MSAPSEEEEYARLVMEAQPEWLRAEVKRLSHELAETTREKIQAAEYGLAVLEEKHQLKLQFEELEVDYEAIRSEMEQLKEAFGQAHTNHKKVAADGESREESLIQESASKEQYYVRKVLELQTELKQLRNVLTNTQSENERLTSVAQELKEINQNVEIQRGRLRDDIKEYKFREARLLQDYSELEEENISLQKQVSVLRQNQVEFEGLKHEIKRLEEETEYLNSQLEDAIRLKEISERQLEEALETLKTEREQKNNLRKELSHYMSINDSFYTSHLQVSLDGLKFSDDTVTAEPNNDAEALVNGFEHSGLVKSSLDNKTSTPRKDGLAPPSPSLVSDLLSELHISEIQKLKQQLVQMEREKVGLLATLQDTQKQLEQARGTLSEQHEKVNRLTENLSALRRLQAGKERQTSLDNEKDRDSHEDGDYYEVDINGPEILACKYHVAVAEAGELREQLKALRSTHEAREAQHAEEKGRYEAEGQALTEKISLLEKASHQDRELLAHLEKELKKVSDVAGETQGSLNVAQDELVTFSEELANLYHHVCMCNNETPNRVMLDYYREGQGKAGRTSPEGRGRRSPVLLPKGLLATEVGRADGGTGDNSPSPSSSLPSPLSDPRREPMNIYNLIAIIRDQIKHLQAAVDRTTELSRQRIASQELGPAVDKDKEALMEEILKLKSLLSTKREQITTLRTVLKANKQTAEVALANLKSKYENEKAMVTETMMKLRNELKALKEDAATFSSLRAMFATRCDEYITQLDEMQRQLAAAEDEKKTLNSLLRMAIQQKLALTQRLELLELDHEQTRRGRSKAASKAKPASPSL
In [4], B4 yielded a stoichiometry N of 2.

B5: CC3 of BICD1 (mouse BICD1 residues 713-802) (domain or fragment)
chain: YENEKAMVTETMTKLRNELKALKEDAATFSSLRAMFATRCDEYVTQLDEMQRQLAAAEDEKKTLNTLLRMAIQQKLALTQRLEDLEFDHE
Regarding B5, the binding result in data set [5] was “binds”.

B6: BICD2^711-800 (CC3 domain of BICD2) (domain or fragment)
chain: YENEKAMVTETMMKLRNELKALKEDAATFSSLRAMFATRCDEYITQLDEMQRQLAAAEDEKKTLNSLLRMAIQQKLALTQRLELLELDHE
B6: the binding result in data set [6] and in [7] was “binds” throughout.

B7: Strep-BICD2^711-800 L742A/L786A (domain or fragment)
chain: YENEKAMVTETMMKLRNELKALKEDAATFSSARAMFATRCDEYITQLDEMQRQLAAAEDEKKTLNSLLRMAIQQKAALTQRLELLELDHE
For B7, in [7], the binding result is “binds”.

B8: Strep-BICD2^711-800 L786A (domain or fragment)
chain: YENEKAMVTETMMKLRNELKALKEDAATFSSLRAMFATRCDEYITQLDEMQRQLAAAEDEKKTLNSLLRMAIQQKAALTQRLELLELDHE
B8: the binding result in data set [7] is “binds”.

B9: Strep-BICD2^711-800 L742A (domain or fragment)
chain: YENEKAMVTETMMKLRNELKALKEDAATFSSARAMFATRCDEYITQLDEMQRQLAAAEDEKKTLNSLLRMAIQQKLALTQRLELLELDHE
For B9, the binding result in data set [7] is on record as “binds”.

B10: BICD2N (BICD2 residues 1-400) (domain or fragment)
chain: MSAPSEEEEYARLVMEAQPEWLRAEVKRLSHELAETTREKIQAAEYGLAVLEEKHQLKLQFEELEVDYEAIRSEMEQLKEAFGQAHTNHKKVAADGESREESLIQESASKEQYYVRKVLELQTELKQLRNVLTNTQSENERLTSVAQELKEINQNVEIQRGRLRDDIKEYKFREARLLQDYSELEEENISLQKQVSVLRQNQVEFEGLKHEIKRLEEETEYLNSQLEDAIRLKEISERQLEEALETLKTEREQKNNLRKELSHYMSINDSFYTSHLQVSLDGLKFSDDTVTAEPNNDAEALVNGFEHSGLVKSSLDNKTSTPRKDGLAPPSPSLVSDLLSELHISEIQKLKQQLVQMEREKVGLLATLQDTQKQLEQARGTLSEQHEKVNRLTENLSALR
On to B10, for which the binding result in data set [8] is recorded as “binds”.
